The nature of series [1]: confocal GFP vs Bodipy-ceramide, MetaMorph. The conditions noted are these: glycan lost; control: wild-type OCTN2.
The nature of series [2]: anti-GFP Western band intensity, CHO membranes. The conditions noted are these: glycan lost; control: wild-type OCTN2.
Series [3] is described as follows: carnitine 0.5–100 µM uptake, Michaelis-Menten fit, CHO. The conditions noted are these: glycan lost; control: wild-type OCTN2.
Series [4] can be described thus: Michaelis-Menten kinetics after 16 h tunicamycin, CHO. The conditions noted are these: glycan lost; control: untreated cells.

B1: OCTN2 carnitine transporter: N57/64/91Q (protein)
parent chain: MRDYDEVTAFLGEWGPFQRLIFFLLSASIIPNGFTGLSSVFLIATPEHRCRVPDAANLSSAWRNHTVPLRLRDGREVPHSCRRYRLATIANFSALGLEPGRDVDLGQLEQESCLDGWEFSQDVYLSTIVTEWNLVCEDDWKAPLTISLFFVGVLLGSFISGQLSDRFGRKNVLFVTMGMQTGFSFLQIFSKNFEMFVVLFVLVGMGQISNYVAAFVLGTEILGKSVRIIFSTLGVCIFYAFGYMVLPLFAYFIRDWRMLLVALTMPGVLCVALWWFIPESPRWLISQGRFEEAEVIIRKAAKANGIVVPSTIFDPSELQDLSSKKQQSHNILDLLRTWNIRMVTIMSIMLWMTISVGYFGLSLDTPNLHGDIFVNCFLSAMVEVPAYVLAWLLLQYLPRRYSMATALFLGGSVLLFMQLVPPDLYYLATVLVMVGKFGVTAAFSMVYVYTAELYPTVVRNMGVGVSSTASRLGSILSPYFVYLGAYDRFLPYILMGSLTILTAILTLFLPESFGTPLPDTIDQMLRVKGMKHRKTPSHTRMLKDGQERPTILKSTAF
In the case of B1, the “localisation_or_trafficking, other: percent of transporters at plasma membrane” value in series [1] was “abolishes”. Moreover, in series [2], the expression_or_secretion result is reported as “decreases”.

B2: OCTN2 carnitine transporter: N64/91Q (protein)
parent chain: MRDYDEVTAFLGEWGPFQRLIFFLLSASIIPNGFTGLSSVFLIATPEHRCRVPDAANLSSAWRNHTVPLRLRDGREVPHSCRRYRLATIANFSALGLEPGRDVDLGQLEQESCLDGWEFSQDVYLSTIVTEWNLVCEDDWKAPLTISLFFVGVLLGSFISGQLSDRFGRKNVLFVTMGMQTGFSFLQIFSKNFEMFVVLFVLVGMGQISNYVAAFVLGTEILGKSVRIIFSTLGVCIFYAFGYMVLPLFAYFIRDWRMLLVALTMPGVLCVALWWFIPESPRWLISQGRFEEAEVIIRKAAKANGIVVPSTIFDPSELQDLSSKKQQSHNILDLLRTWNIRMVTIMSIMLWMTISVGYFGLSLDTPNLHGDIFVNCFLSAMVEVPAYVLAWLLLQYLPRRYSMATALFLGGSVLLFMQLVPPDLYYLATVLVMVGKFGVTAAFSMVYVYTAELYPTVVRNMGVGVSSTASRLGSILSPYFVYLGAYDRFLPYILMGSLTILTAILTLFLPESFGTPLPDTIDQMLRVKGMKHRKTPSHTRMLKDGQERPTILKSTAF
On to B2, for which the “localisation_or_trafficking, other: percent of transporters at plasma membrane” value in series [1] is reported as “decreases”. The expression_or_secretion result in series [2] is reported as “decreases”. The “other: Vmax of carnitine transport” value in series [3] is listed as “decreases”.

B3: OCTN2 carnitine transporter: tunicamycin (0.5 µg/ml) (protein)
parent chain: MRDYDEVTAFLGEWGPFQRLIFFLLSASIIPNGFTGLSSVFLIATPEHRCRVPDAANLSSAWRNHTVPLRLRDGREVPHSCRRYRLATIANFSALGLEPGRDVDLGQLEQESCLDGWEFSQDVYLSTIVTEWNLVCEDDWKAPLTISLFFVGVLLGSFISGQLSDRFGRKNVLFVTMGMQTGFSFLQIFSKNFEMFVVLFVLVGMGQISNYVAAFVLGTEILGKSVRIIFSTLGVCIFYAFGYMVLPLFAYFIRDWRMLLVALTMPGVLCVALWWFIPESPRWLISQGRFEEAEVIIRKAAKANGIVVPSTIFDPSELQDLSSKKQQSHNILDLLRTWNIRMVTIMSIMLWMTISVGYFGLSLDTPNLHGDIFVNCFLSAMVEVPAYVLAWLLLQYLPRRYSMATALFLGGSVLLFMQLVPPDLYYLATVLVMVGKFGVTAAFSMVYVYTAELYPTVVRNMGVGVSSTASRLGSILSPYFVYLGAYDRFLPYILMGSLTILTAILTLFLPESFGTPLPDTIDQMLRVKGMKHRKTPSHTRMLKDGQERPTILKSTAF
B3: the “other: kinetic parameters of carnitine transport” value in series [4] was “no change”.

B4: OCTN2 carnitine transporter: N57Q/N64Q (protein)
parent chain: MRDYDEVTAFLGEWGPFQRLIFFLLSASIIPNGFTGLSSVFLIATPEHRCRVPDAANLSSAWRNHTVPLRLRDGREVPHSCRRYRLATIANFSALGLEPGRDVDLGQLEQESCLDGWEFSQDVYLSTIVTEWNLVCEDDWKAPLTISLFFVGVLLGSFISGQLSDRFGRKNVLFVTMGMQTGFSFLQIFSKNFEMFVVLFVLVGMGQISNYVAAFVLGTEILGKSVRIIFSTLGVCIFYAFGYMVLPLFAYFIRDWRMLLVALTMPGVLCVALWWFIPESPRWLISQGRFEEAEVIIRKAAKANGIVVPSTIFDPSELQDLSSKKQQSHNILDLLRTWNIRMVTIMSIMLWMTISVGYFGLSLDTPNLHGDIFVNCFLSAMVEVPAYVLAWLLLQYLPRRYSMATALFLGGSVLLFMQLVPPDLYYLATVLVMVGKFGVTAAFSMVYVYTAELYPTVVRNMGVGVSSTASRLGSILSPYFVYLGAYDRFLPYILMGSLTILTAILTLFLPESFGTPLPDTIDQMLRVKGMKHRKTPSHTRMLKDGQERPTILKSTAF
Regarding B4, the expression_or_secretion result in series [2] was “no change”.

B5: OCTN2 carnitine transporter: N57/91Q (protein)
parent chain: MRDYDEVTAFLGEWGPFQRLIFFLLSASIIPNGFTGLSSVFLIATPEHRCRVPDAANLSSAWRNHTVPLRLRDGREVPHSCRRYRLATIANFSALGLEPGRDVDLGQLEQESCLDGWEFSQDVYLSTIVTEWNLVCEDDWKAPLTISLFFVGVLLGSFISGQLSDRFGRKNVLFVTMGMQTGFSFLQIFSKNFEMFVVLFVLVGMGQISNYVAAFVLGTEILGKSVRIIFSTLGVCIFYAFGYMVLPLFAYFIRDWRMLLVALTMPGVLCVALWWFIPESPRWLISQGRFEEAEVIIRKAAKANGIVVPSTIFDPSELQDLSSKKQQSHNILDLLRTWNIRMVTIMSIMLWMTISVGYFGLSLDTPNLHGDIFVNCFLSAMVEVPAYVLAWLLLQYLPRRYSMATALFLGGSVLLFMQLVPPDLYYLATVLVMVGKFGVTAAFSMVYVYTAELYPTVVRNMGVGVSSTASRLGSILSPYFVYLGAYDRFLPYILMGSLTILTAILTLFLPESFGTPLPDTIDQMLRVKGMKHRKTPSHTRMLKDGQERPTILKSTAF
On to B5, for which the “localisation_or_trafficking, other: percent of transporters at plasma membrane” value in series [1] is on record as “decreases”.

For the origin of these results see paper PMC3026072.
